Results as given in paper PMC7530888 (Nucleic Acids Research, 2020).
Substitutions are numbered along the chain they refer to.

B1: GST-tagged MtbXthA (enzyme)
chain: MPDGTIDGGHPQRPASPRLRSPLLRLATWNVNSIRTRLDRVLDWLGRADVDVLAMQETKCPDGQFPALPLFELGYDVAHVGFDQWNGVAIASRVGLDDVRVGFDGQPSWSGKPEVAATTEARALGATCGGIRVWSLYVPNGRALDDPHYTYKLDWLAALRDTAEGWLRDDPAAPIALMGDWNIAPTDDDVWSTEFFAGCTHVSEPERKAFNAIVDAQFTDVVRPFTPGPGVYTYWDYTQLRFPKKQGMRIDFILGSPALAARVMDAQIVREERKGKAPSDHAPVLVDLHAG
B2: GST-tagged MtbXthA^ID (interaction-defective triple mutant) (enzyme)
chain: B1 chain with S110A, G111L, K112A

How the values were obtained:
Assay in all cases: SPR
MtbLigA^G639V = MtbLigA^G639V (M. tuberculosis, UniProt P9WNV1 1-691, G639V)
MtbLigA^G621I = MtbLigA^G621I (M. tuberculosis, UniProt P9WNV1 1-691, G621I)
MtbLigA^G614I = MtbLigA^G614I (M. tuberculosis, UniProt P9WNV1 1-691, G614I)
[1] = biological target: Full-length His-tagged MtbLigA (M. tuberculosis, UniProt P9WNV1 1-691)

Binder	Kd (MtbLigA^G639V)	Kd (MtbLigA^G621I)	Kd (MtbLigA^G614I)	Kd [1]
B1	2770 nM	154 nM	781 nM	
B2	9010 nM			613 nM
